Assay results taken from patent US20260008848A1, “ANTI-NECTIN-4 ANTIBODY, AND ANTIBODY-DRUG CONJUGATE AND USE THEREOF” (Bio-Thera Solutions, Ltd., priority 2022, published 2026).

T1: human Nectin-4 extracellular antigen (Nectin-4-His) (Homo sapiens, UniProt Q96NY8)
T1 construct: albumin signal peptide (replaces the native Nectin-4 signal peptide) (N); made in house
T1 sequence (Q96NY8 with tags, fused parts or gaps): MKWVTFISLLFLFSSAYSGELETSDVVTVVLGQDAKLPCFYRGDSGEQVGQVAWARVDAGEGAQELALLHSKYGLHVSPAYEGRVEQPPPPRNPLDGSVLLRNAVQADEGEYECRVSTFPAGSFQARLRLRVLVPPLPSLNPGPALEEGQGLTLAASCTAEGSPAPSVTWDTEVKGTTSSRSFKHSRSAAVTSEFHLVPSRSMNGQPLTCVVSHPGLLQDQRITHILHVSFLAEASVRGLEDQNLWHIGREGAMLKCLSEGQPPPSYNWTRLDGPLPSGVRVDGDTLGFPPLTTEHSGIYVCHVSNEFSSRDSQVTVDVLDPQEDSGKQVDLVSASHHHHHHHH

T2: human Nectin-4 extracellular antigen Nectin-4-His (human, UniProt Q96NY8 32-349)
T2 construct: the secreted protein in the assay lacks the signal peptide
T2 sequence: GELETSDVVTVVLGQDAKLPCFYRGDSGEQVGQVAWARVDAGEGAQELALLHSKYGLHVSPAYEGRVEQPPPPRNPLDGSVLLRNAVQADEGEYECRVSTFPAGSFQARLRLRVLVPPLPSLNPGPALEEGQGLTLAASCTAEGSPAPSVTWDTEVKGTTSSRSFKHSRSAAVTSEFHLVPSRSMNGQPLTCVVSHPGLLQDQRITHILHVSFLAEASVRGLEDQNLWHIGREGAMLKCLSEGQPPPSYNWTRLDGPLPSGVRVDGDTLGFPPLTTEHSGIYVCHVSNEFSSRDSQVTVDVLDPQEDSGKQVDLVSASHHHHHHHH

T3: Nectin-4 on T-47D cells (human ductal breast carcinoma cells) (human, UniProt Q96NY8 32-510)
T3 construct: whole, on cells; that is inferred from the antibodies' specificity
T3 sequence (looked up): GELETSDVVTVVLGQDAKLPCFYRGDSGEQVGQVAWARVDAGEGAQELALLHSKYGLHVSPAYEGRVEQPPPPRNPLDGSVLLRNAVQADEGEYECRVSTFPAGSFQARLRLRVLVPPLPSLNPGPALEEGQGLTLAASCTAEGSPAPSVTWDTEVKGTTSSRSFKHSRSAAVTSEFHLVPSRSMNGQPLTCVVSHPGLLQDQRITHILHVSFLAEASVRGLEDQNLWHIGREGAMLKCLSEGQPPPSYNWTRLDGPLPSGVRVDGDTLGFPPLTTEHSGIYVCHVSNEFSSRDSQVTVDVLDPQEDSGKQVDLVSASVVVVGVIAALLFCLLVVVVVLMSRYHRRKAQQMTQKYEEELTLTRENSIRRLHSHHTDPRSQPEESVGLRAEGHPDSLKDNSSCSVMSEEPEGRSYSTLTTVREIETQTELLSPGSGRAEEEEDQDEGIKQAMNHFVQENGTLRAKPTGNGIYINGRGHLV


What was measured:
[1] = biological target: T1, human Nectin-4 extracellular antigen (Nectin-4-His); assay: Affinity measurement by BLI (Octet QKe, Protein A biosensor); format: binding
Description: (§1) The affinity of candidate antibodies (ASG-22 and ASG-AM) for the human Nectin-4 extracellular antigen was detected using the bio-layer interferometry (BLI) technology on the Octet platform (Fortebio, Octet QKe).
(§2) Antibodies were loaded onto a Protein A biosensor (Fortebio, 18-5010) at a concentration of 20 μg/mL with a loading time of 60 s. Nectin-4-His antigen concentrations were set at 200 nM, 100 nM, 50 nM, 25 nM, and 0 nM. The antigen association time was 180 s, and the dissociation time was 200 s. Data were then processed and analyzed using Acquisition 8.2 to give affinity constants (see Table 4).

T-47D cells [2] = assay: Endocytosis assay by FACS (antibody remaining on cell surface); format: cell-based, human; settings: 10 μg/mL antibody
Description: The relative quantity of antibodies remaining on the cell surface after incubation at 37° C. for a certain period was detected by FACS to reflect the efficiency of endocytosis. The method is briefly described as follows: T-47D cells (human ductal breast carcinoma cells, sourced from the Cell Bank of the Chinese Academy of Sciences, Cat. No.: TCHu 87) were used. Each test antibody was adjusted to a concentration of 10 μg/mL and co-incubated with cells (at a density of 0.5×10^6 cells/mL) on ice for 1 h for binding. The cells were washed thrice with pre-cooled PBS and then incubated at 37° C. for 0 h, 2 h, and 4 h. The endocytosis reaction was terminated with 0.2% N3Na, and the cells were washed thrice with PBS. Subsequently, a PE-labeled anti-human Fc secondary antibody (Invitrogen 12-4998-82) was added, and the cells were incubated at 4° C. for 30 min. The red fluorescence signal was detected by a flow cytometer.

[3] = biological target: T1, human Nectin-4 extracellular antigen (Nectin-4-His); assay: Affinity measurement by SPR (BIAcore T200, Protein A chip capture); format: binding; settings: 1:1 model fit
Description: (§3) The candidate antibodies (ASG-22 and ASG-AM) were analyzed for their affinity for the human Nectin-4 extracellular antigen using surface plasmon resonance (SPR) technology (BIAcore: GE Healthcare, T200).
(§4) The capture was conducted on a Protein A chip (Cat #29127556, GE Healthcare): Antibody dilutions ([…]) were directed through the experimental flow channels (Fc2 and Fc4) at a flow rate of 10 μL/min for 10 s. Then antigen Nectin-4-His (prepared from Example 1) dilutions at different concentrations (0 nM, 1.23 nM, 3.7 nM, 11.1 nM, 33.3 nM, and 100 nM) were sequentially introduced with the flow rate adjusted to 30 μL/min through the surfaces of the experimental flow channels (Fc2 and Fc4) and reference flow channels (Fc1 and Fc3) with 120 s of association and 180 s of dissociation. Finally, the chip regenerated in Glycine 1.5. Fitting and analysis were performed using BiaEvaluation 3.2, with a 1:1 model for the fitting.

T-47D cells [4] = assay: Binding of antibody to T-47D cells by FACS; set-up: species or system human; settings: 3-fold dilutions from 100 nM, 4° C.
Description: (§5) The binding activity of antibody ASG-AM to T-47D cells (human ductal breast carcinoma cells, sourced from the Cell Bank of the Chinese Academy of Sciences, Cat. No.: TCHu 87) was detected by FACS and compared with that of the reference antibody ASG-22. The EC50 of the binding of candidate antibodies to the cells was analyzed using the four-parameter method. The method is briefly described as follows: T-47D cells were digested with pancreatin. Each candidate antibody was serially 3-fold diluted from 100 nM and co-incubated with T-47D cells at 4° C. for 0.5-1 h. Subsequently, a PE-labeled anti-human Fc secondary antibody (Invitrogen, 12-4998-82) was added. The signal intensity of the red fluorescence was detected by a flow cytometer. Graphpad Prism was used for plotting and calculating the EC50.

[5] = biological target: T2, human Nectin-4 extracellular antigen …; assay: BLI (Octet QKe), antibody loaded on Protein A biosensor, Nectin-4-His in solution
Description: as §1, §2

[6] = biological target: T3, Nectin-4 on T-47D cells (human ductal …); assay: FACS on T-47D cells, antibody 3-fold diluted from 100 nM, PE-labeled anti-human Fc secondary antibody, four-parameter fit
Description: as §5, with “EC₅₀” for “EC50”, “EC₅₀.” for “EC50.”

[7] = biological target: T2, human Nectin-4 extracellular antigen …; assay: SPR (BIAcore T200), antibody captured on Protein A chip, Nectin-4-His as analyte, 1:1 fit
Description: as §3, §4

| Rmax [1] | kdis [1] [s⁻¹] | kon [1] [M⁻¹ s⁻¹] | Ka [3] [M⁻¹ s⁻¹] | Rmax [3] [RU] | Kd ([3]; dissociation rate) [s⁻¹] | Kd [5] [nM] | koff [5] [s⁻¹] | kon [5] [M⁻¹ s⁻¹] | EC50 [6] [nM] | Kd [7] [nM] | koff [7] [s⁻¹] | kon [7] [M⁻¹ s⁻¹] | Molecule | red fluorescence signal at 0 h (T-47D cells [2]; 37° C. for 0 h) | Endocytosis at 2 h (T-47D cells [2]; 37° C. for 2 h) [%] | red fluorescence signal at 2 h (T-47D cells [2]; 37° C. for 2 h) | Endocytosis at 4 h (T-47D cells [2]; 37° C. for 4 h) [%] | red fluorescence signal at 4 h (T-47D cells [2]; 37° C. for 4 h) | binding curves to T-47D cells (T-47D cells [4]) |
| --- | --- | --- | --- | --- | --- | --- | --- | --- | --- | --- | --- | --- | --- | --- | --- | --- | --- | --- | --- |
| 0.5303 | 0.00162 | 113000 | 606000 | 164.2 | 0.00523 |  |  |  |  |  |  |  | ASG-22: reference anti-Nectin-4 antibody; heavy chain SEQ ID NO: 12, light chain SEQ ID NO: 17 (Table 2) [reference compound] | 24098.3 | 53.46 | 11216.0 | 74.97 | 6033 | substantially consistent |
|  |  |  |  |  |  | 14.3 | 0.00162 | 113000 | 0.752 | 8.64 | 0.00523 | 606000 | reference antibody ASG-22 (antibody, human IgG1, kappa, V domains shown, Expressed in HEK293F cells) VH: EVQLVESGGGLVQPGGSLRLSCAASGFTFSSYNMNWVRQAPGKGLEWVSYISSSSSTIYYADSVKGRFTISRDNAKNSLSLQMNSLRDEDTAVYYCARAYYYGMDVWGQGTLVTVSS VL: DIQMTQSPSSVSASVGDRVTITCRASQGISGWLAWYQQKPGKAPKFLIYAASTLQSGVPSRFSGSGSGTDFTLTISSLQPEDFATYYCQQANSFPPTFGGGTKVEIKR |  |  |  |  |  |  |
|  |  |  |  |  |  | 0.266 | 2.38e-05 | 89600 | 0.726 | 1.79 | 0.000535 | 298000 | anti-Nectin-4 antibody ASG-AM (antibody, human IgG1, kappa, V domains shown, Expressed in HEK293F cells) VH: EVQLVESGGGLVQPGGSLRLSCAASGFTFSSYNMNWVRQAPGKGLEWVSYISSSSSTIYYADSVKGRFTISRDNAKNSLSLQMNSLRDEDTAVYYCARAYYYGMDVWGQGTLVTVSS VL: DIQMTQSPSSVSASVGDRVTITCRASQGISGWLAWYQQKPGKAPKFLIYAASTLQSGVPSRFSGSGSGTDFTLTISSLQPEDFATYYCQQAGPGWVFGQGTKVEIKR |  |  |  |  |  |  |
